Source: publication PMC8556674

Tests used:
mchr-Miro2 (human) [1] = molecular target: mchr-Miro2 (human) (UniProt Q8IXI1)
mchr-Miro2 A13V (human) = mchr-Miro2 A13V (human) (UniProt Q8IXI1)
mchr-Miro2 (human) [2] = molecular target: mchr-Miro2 (human) (UniProt Q8IXI1); remark: listed apart in the source

Chain of mchr-Miro2 (human) (Q8IXI1 whole entry): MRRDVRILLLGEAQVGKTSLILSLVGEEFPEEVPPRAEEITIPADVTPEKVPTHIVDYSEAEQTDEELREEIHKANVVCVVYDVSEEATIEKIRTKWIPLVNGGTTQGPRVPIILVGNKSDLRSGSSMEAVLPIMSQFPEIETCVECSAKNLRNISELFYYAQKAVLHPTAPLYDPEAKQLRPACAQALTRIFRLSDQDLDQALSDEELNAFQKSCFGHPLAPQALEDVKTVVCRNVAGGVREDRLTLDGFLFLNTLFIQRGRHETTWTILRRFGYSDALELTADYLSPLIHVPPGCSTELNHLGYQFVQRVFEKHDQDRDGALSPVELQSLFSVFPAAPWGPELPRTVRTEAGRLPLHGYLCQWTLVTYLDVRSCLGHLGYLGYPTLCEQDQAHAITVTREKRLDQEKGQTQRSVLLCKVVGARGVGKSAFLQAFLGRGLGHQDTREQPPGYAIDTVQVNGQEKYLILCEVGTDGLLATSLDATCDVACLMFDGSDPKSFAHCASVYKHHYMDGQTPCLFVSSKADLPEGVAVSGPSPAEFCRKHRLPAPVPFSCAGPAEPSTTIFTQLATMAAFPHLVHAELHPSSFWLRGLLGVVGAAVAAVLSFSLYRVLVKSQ
Chain of mchr-Miro2 A13V (human) (Q8IXI1 whole entry A13V): as the sequence (Q8IXI1 whole entry) above, with A13V counted along it

PARF immobile fraction, HeLa cells, 25 uM digitonin (mchr-Miro2 (human) [1]) | FRAP immobile fraction, live HeLa cells (mchr-Miro2 A13V (human)) | FRAP immobile fraction, live HeLa cells (mchr-Miro2 (human) [2]) | FRAP t1/2 of mitochondrial GFP fluorescence, live HeLa cells (mchr-Miro2 (human) [2]) [s] | Substance
0.33 | 0.14 | 0.03 | 9.2 | MYO19^898–970-GFP (from UniProt Q96H55 898-970) (domain or fragment)
 |  | 0.04 | 1.5 | MYO19^898–970-GFP mut. (K923, R927 and K928 mutated to alanine) (from UniProt Q96H55 898-970) (domain or fragment)
